Assay results reported in US20240132563A1.

Key:
Assay in all cases: cell-based or functional assay
[1] = target: IL-18 polypeptide of SEQ ID NO: 57 (E6K, C38S, K53A) (human) (UniProt Q14116)
[2] = target: IL-18 polypeptide C147 (V11I, C38A, K53A, D54A, C76A, C127A) (human) (UniProt Q14116)
[3] = target: IL-18 polypeptide C154 (V11I, E31A, D37A, C38A, K53A, C76A, C127A) (human) (UniProt Q14116)
[4] = target: IL-18 polypeptide of SEQ ID NO: 55 (K53A, T63A, C38S, C68S, C76S, C127S, K70C) (human) (UniProt Q14116)
[5] = target: IL-18 polypeptide C146, SEQ ID NO: 68 (V11I, C38A, M51G, K53A, C76A, C127A) (human) (UniProt Q14116)
[6] = target: IL-18 polypeptide of SEQ ID NO: 34 (E06K, K53A, S55A) (human) (UniProt Q14116)
[7] = target: IL-18 polypeptide of SEQ ID NO: 54 (E06K, K53A, C38S, C68S, C76S, C127S, K70C) (human) (UniProt Q14116)
[8] = target: IL-18 polypeptide of SEQ ID NO: 46 (E06K, K53A, S55A, M51G) (human) (UniProt Q14116)
[9] = target: IL-18 polypeptide of SEQ ID NO: 36 (K53A) (human) (UniProt Q14116)
[10] = target: IL-18 polypeptide C168 (V11I, C38A, C76A, S105K, C127A) (human) (UniProt Q14116)
[11] = target: IL-18 polypeptide C153 (V11I, D37A, C38A, K53A, C76A, C127A) (human) (UniProt Q14116)
[12] = target: IL-18 polypeptide of SEQ ID NO: 41 (K53A, S55A) (human) (UniProt Q14116)
[13] = target: IL-18 polypeptide C163 (V11I, C38A, C76A, Q103K, C127A) (human) (UniProt Q14116)
[14] = target: IL-18 polypeptide C152 (V11I, S36A, C38A, K53A, C76A, C127A) (human) (UniProt Q14116)
[15] = target: IL-18 polypeptide of SEQ ID NO: 38 (E06K) (human) (UniProt Q14116)
[16] = target: IL-18 polypeptide of SEQ ID NO: 53 (K53A, T63A) (human) (UniProt Q14116)
[17] = target: IL-18 polypeptide of SEQ ID NO: 52 (E06K, T63A) (human) (UniProt Q14116)
[18] = target: IL-18 polypeptide C157 (V11I, C38A, K53A, C76A, C127A, D132A) (human) (UniProt Q14116)
[19] = target: IL-18 polypeptide C161 (K8R, V11I, C38A, C76A, Q103E, C127A) (human) (UniProt Q14116)
[20] = target: IL-18 polypeptide C149 (V11I, E31A, C38A, K53A, C76A, C127A) (human) (UniProt Q14116)
[21] = target: IL-18 polypeptide C165 (V11I, C38A, S55R, C76A, C127A) (human) (UniProt Q14116)
[22] = target: IL-18 polypeptide C167 (V11I, C38A, C76A, S105I, C127A) (human) (UniProt Q14116)
[23] = target: IL-18 polypeptide of SEQ ID NO: 51 (T63A) (human) (UniProt Q14116)
[24] = target: IL-18 polypeptide of SEQ ID NO: 40 (E06K, S55A) (human) (UniProt Q14116)
[25] = target: IL-18 polypeptide of SEQ ID NO: 30 (E6K, V11I, C38A, K53A, T63A, C76A, C127A) (human) (UniProt Q14116)
[26] = target: IL-18 polypeptide of SEQ ID NO: 59 (E6K, C38A, K53A) (human) (UniProt Q14116)
[27] = target: IL-18 polypeptide of SEQ ID NO: 39 (E06K, K53A) (human) (UniProt Q14116)
Sequence of IL-18 polypeptide of SEQ ID NO: 39 (E06K, K53A) (human) (Q14116 37-193 E42K/K89A): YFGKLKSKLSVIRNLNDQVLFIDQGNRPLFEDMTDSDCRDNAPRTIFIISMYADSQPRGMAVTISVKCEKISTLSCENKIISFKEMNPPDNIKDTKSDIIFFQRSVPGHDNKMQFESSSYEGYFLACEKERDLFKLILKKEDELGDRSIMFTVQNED

Sequence of IL-18 polypeptide of SEQ ID NO: 34 (E06K, K53A, S55A) (human) (Q14116 37-193 E42K/K89A/S91A): as the sequence (Q14116 37-193 E42K/K89A) above, with S55A counted along it
Sequence of IL-18 polypeptide of SEQ ID NO: 36 (K53A) (human) (Q14116 37-193 K89A): as the sequence (Q14116 37-193 E42K/K89A) above, with K6E counted along it
Sequence of IL-18 polypeptide of SEQ ID NO: 51 (T63A) (human) (Q14116 37-193 T99A): as the sequence (Q14116 37-193 E42K/K89A) above, with K6E, A53K, T63A counted along it
Sequence of IL-18 polypeptide C146, SEQ ID NO: 68 (V11I, C38A, M51G, K53A, C76A, C127A) (human) (Q14116 37-193 V47I/C74A/M87G/K89A/C112A/C163A): as the sequence (Q14116 37-193 E42K/K89A) above, with K6E, V11I, C38A, M51G, C76A, C127A counted along it
Sequence of IL-18 polypeptide C149 (V11I, E31A, C38A, K53A, C76A, C127A) (human) (Q14116 37-193 V47I/E67A/C74A/K89A/C112A/C163A): as the sequence (Q14116 37-193 E42K/K89A) above, with K6E, V11I, E31A, C38A, C76A, C127A counted along it
Sequence of IL-18 polypeptide C161 (K8R, V11I, C38A, C76A, Q103E, C127A) (human) (Q14116 other isoform, or with tags, fused parts or gaps V11I C38A C76A Q103E C127A V11I C38A C76A Q103E C127A): as the sequence (Q14116 37-193 E42K/K89A) above, with K6E, K8R, V11I, C38A, A53K, C76A, Q103E, C127A counted along it
Sequence of IL-18 polypeptide of SEQ ID NO: 30 (E6K, V11I, C38A, K53A, T63A, C76A, C127A) (human) (Q14116 other isoform, or with tags, fused parts or gaps with the stated changes): as the sequence (Q14116 37-193 E42K/K89A) above, with V11I, C38A, T63A, C76A, C127A counted along it
Sequence of IL-18 polypeptide C163 (V11I, C38A, C76A, Q103K, C127A) (human) (Q14116 37-193 V47I/C74A/C112A/Q139K/C163A): as the sequence (Q14116 37-193 E42K/K89A) above, with K6E, V11I, C38A, A53K, C76A, Q103K, C127A counted along it
Sequence of IL-18 polypeptide C152 (V11I, S36A, C38A, K53A, C76A, C127A) (human) (Q14116 37-193 V47I/S72A/C74A/K89A/C112A/C163A): as the sequence (Q14116 37-193 E42K/K89A) above, with K6E, V11I, S36A, C38A, C76A, C127A counted along it
Sequence of IL-18 polypeptide C167 (V11I, C38A, C76A, S105I, C127A) (human) (Q14116 37-193 V47I/C74A/C112A/S141I/C163A): as the sequence (Q14116 37-193 E42K/K89A) above, with K6E, V11I, C38A, A53K, C76A, S105I, C127A counted along it
Sequence of IL-18 polypeptide of SEQ ID NO: 40 (E06K, S55A) (human) (Q14116 37-193 E42K/S91A): as the sequence (Q14116 37-193 E42K/K89A) above, with A53K, S55A counted along it
Sequence of IL-18 polypeptide C147 (V11I, C38A, K53A, D54A, C76A, C127A) (human) (Q14116 37-193 V47I/C74A/K89A/D90A/C112A/C163A): as the sequence (Q14116 37-193 E42K/K89A) above, with K6E, V11I, C38A, D54A, C76A, C127A counted along it
Sequence of IL-18 polypeptide of SEQ ID NO: 52 (E06K, T63A) (human) (Q14116 37-193 E42K/T99A): as the sequence (Q14116 37-193 E42K/K89A) above, with A53K, T63A counted along it
Sequence of IL-18 polypeptide of SEQ ID NO: 54 (E06K, K53A, C38S, C68S, C76S, C127S, K70C) (human) (Q14116 37-193 E42K/C74S/K89A/C104S/K106C/C112S/C163S): as the sequence (Q14116 37-193 E42K/K89A) above, with C38S, C68S, K70C, C76S, C127S counted along it
Sequence of IL-18 polypeptide of SEQ ID NO: 38 (E06K) (human) (Q14116 37-193 E42K): as the sequence (Q14116 37-193 E42K/K89A) above, with A53K counted along it
Sequence of IL-18 polypeptide C154 (V11I, E31A, D37A, C38A, K53A, C76A, C127A) (human) (Q14116 37-193 V47I/E67A/D73A/C74A/K89A/C112A/C163A): as the sequence (Q14116 37-193 E42K/K89A) above, with K6E, V11I, E31A, D37A, C38A, C76A, C127A counted along it
Sequence of IL-18 polypeptide C168 (V11I, C38A, C76A, S105K, C127A) (human) (Q14116 37-193 V47I/C74A/C112A/S141K/C163A): as the sequence (Q14116 37-193 E42K/K89A) above, with K6E, V11I, C38A, A53K, C76A, S105K, C127A counted along it
Sequence of IL-18 polypeptide of SEQ ID NO: 53 (K53A, T63A) (human) (Q14116 37-193 K89A/T99A): as the sequence (Q14116 37-193 E42K/K89A) above, with K6E, T63A counted along it
Sequence of IL-18 polypeptide C165 (V11I, C38A, S55R, C76A, C127A) (human) (Q14116 37-193 V47I/C74A/S91R/C112A/C163A): as the sequence (Q14116 37-193 E42K/K89A) above, with K6E, V11I, C38A, A53K, S55R, C76A, C127A counted along it
Sequence of IL-18 polypeptide of SEQ ID NO: 41 (K53A, S55A) (human) (Q14116 37-193 K89A/S91A): as the sequence (Q14116 37-193 E42K/K89A) above, with K6E, S55A counted along it
Sequence of IL-18 polypeptide of SEQ ID NO: 55 (K53A, T63A, C38S, C68S, C76S, C127S, K70C) (human) (Q14116 37-193 C74S/K89A/T99A/C104S/K106C/C112S/C163S): as the sequence (Q14116 37-193 E42K/K89A) above, with K6E, C38S, T63A, C68S, K70C, C76S, C127S counted along it
Sequence of IL-18 polypeptide of SEQ ID NO: 57 (E6K, C38S, K53A) (human) (Q14116 other isoform, or with tags, fused parts or gaps C38S K53A C38S K53A): as the sequence (Q14116 37-193 E42K/K89A) above, with C38S counted along it
Sequence of IL-18 polypeptide C153 (V11I, D37A, C38A, K53A, C76A, C127A) (human) (Q14116 37-193 V47I/D73A/C74A/K89A/C112A/C163A): as the sequence (Q14116 37-193 E42K/K89A) above, with K6E, V11I, D37A, C38A, C76A, C127A counted along it
Sequence of IL-18 polypeptide of SEQ ID NO: 46 (E06K, K53A, S55A, M51G) (human) (Q14116 37-193 E42K/M87G/K89A/S91A): as the sequence (Q14116 37-193 E42K/K89A) above, with M51G, S55A counted along it
Sequence of IL-18 polypeptide of SEQ ID NO: 59 (E6K, C38A, K53A) (human) (Q14116 other isoform, or with tags, fused parts or gaps C38A K53A C38A K53A): as the sequence (Q14116 37-193 E42K/K89A) above, with C38A counted along it
Sequence of IL-18 polypeptide C157 (V11I, C38A, K53A, C76A, C127A, D132A) (human) (Q14116 37-193 V47I/C74A/K89A/C112A/C163A/D168A): as the sequence (Q14116 37-193 E42K/K89A) above, with K6E, V11I, C38A, C76A, C127A, D132A counted along it

Fc-fused human IL-18 binding protein isoform a (IL-18BPa) (from UniProt O95998 31-194) (Fc fusion)
IC50 of IL-18BPa inhibition of IFNγ induction in NK-92 cells [1]: 1.62 nM
IC50 of IL-18BPa inhibition of IFNγ induction in NK-92 cells [2]: 5.05 nM
IC50 of IL-18BPa inhibition of IFNγ induction in NK-92 cells [3]: 3.23 nM
IC50 of IL-18BPa inhibition of IFNγ induction in NK-92 cells [4]: > 1000 nM
IC50 of IL-18BPa inhibition of IFNγ induction in NK-92 cells [5]: 47.6 nM
IC50 of IL-18BPa inhibition of IFNγ induction in NK-92 cells [6]: 229 nM
IC50 of IL-18BPa inhibition of IFNγ induction in NK-92 cells [7]: 23.5 nM
IC50 of IL-18BPa inhibition of IFNγ induction in NK-92 cells [8]: 0.189 nM
IC50 of IL-18BPa inhibition of IFNγ induction in NK-92 cells [9]: 27.3 nM
IC50 of IL-18BPa inhibition of IFNγ induction in NK-92 cells [10]: 5.85 nM
IC50 of IL-18BPa inhibition of IFNγ induction in NK-92 cells [11]: 3.71 nM
IC50 of IL-18BPa inhibition of IFNγ induction in NK-92 cells [12]: 37.3 nM
IC50 of IL-18BPa inhibition of IFNγ induction in NK-92 cells [13]: 0.456 nM
IC50 of IL-18BPa inhibition of IFNγ induction in NK-92 cells [14]: 2.22 nM
IC50 of IL-18BPa inhibition of IFNγ induction in NK-92 cells [15]: 7.79 nM
IC50 of IL-18BPa inhibition of IFNγ induction in NK-92 cells [16]: 18.2 nM
IC50 of IL-18BPa inhibition of IFNγ induction in NK-92 cells [17]: 47.1 nM
IC50 of IL-18BPa inhibition of IFNγ induction in NK-92 cells [18]: 3.98 nM
IC50 of IL-18BPa inhibition of IFNγ induction in NK-92 cells [19]: 7.29 nM
IC50 of IL-18BPa inhibition of IFNγ induction in NK-92 cells [20]: 21.3 nM
IC50 of IL-18BPa inhibition of IFNγ induction in NK-92 cells [21]: 0.44 nM
IC50 of IL-18BPa inhibition of IFNγ induction in NK-92 cells [22]: 0.176 nM
IC50 of IL-18BPa inhibition of IFNγ induction in NK-92 cells [23]: 0.239 nM
IC50 of IL-18BPa inhibition of IFNγ induction in NK-92 cells [24]: 15 nM
IC50 of IL-18BPa inhibition of IFNγ induction in NK-92 cells [25]: 284 nM
IC50 of IL-18BPa inhibition of IFNγ induction in NK-92 cells [26]: 146 nM
IC50 of IL-18BPa inhibition of IFNγ induction in NK-92 cells [27]: > 703 nM
